Data from patent publication US20100041743A1.

Experiments:
Assay in all cases: cell-based or functional assay
[1] = biological target: human IgG (Gammonativ, Octapharma)
rabbit IgG (Sigma) = biological target: rabbit IgG (Sigma)
[2] = biological target: anti-OVA mouse IgG1 (mAb, Sigma)

## hybrid bFcRn α-chain / mouse β2m receptor (bovine FcRn expressed in BAC 128E04 transgenic mice) (from UniProt F6R592 35-358; P01887 21-119)
[1]
  beta-phase half-life (hours) of injected human IgG in bFcRn Tg mice (line #14 homozygote), 10 µg/BWg: 172 h
  beta-phase half-life (hours) of injected human IgG in bFcRn Tg mice (line #14 homozygote), 20 µg/BWg: 181 h
Rabbit IgG (Sigma)
  half-life of injected rabbit IgG in bFcRn/mFcRn-/- mice (15 hours in FcRn-/- mice): 67 h
[2]
  beta-phase half-life (hours) of injected mouse IgG in bFcRn Tg mice (line #14 homozygote), 10 µg/BWg: 165 h
